Numbering of substitutions follows the chain as printed. Read-outs that look alike come from different tables or passages of the source. One block for each binder: values may come before it.
Experiments:
[1] = biological target: T1, human Galectin-9 CRD1 (residues 1-148), biotinylated (human, UniProt O00182 1-148, biotinylated in vitro with BirA (Avitag)); experiment: phage ELISA, phage-displayed Fab on biotinylated CRD
T1 construct: Made as GST fusion, GST cleaved off with thrombin, gel filtered, biotinylated; not shown: Avitag upstream of the cloned gene (pGEX vector), left after thrombin cleavage from GST

[2] = biological target: T1, human Galectin-9 CRD1 (residues 1-148), …; experiment: bead-based binding assay, flow cytometry
Method: (§1) The affinities of the antibodies were assessed using a bead-based assay as previously described (Nishikori et al., J Mol Biol, 2012, 424, 391-399) and surface plasmon resonance (SPR). In the bead-based assay, a biotinylated protein (either a Galectin-9 sample or a Fab sample) was immobilized on streptavidin-coated Dynabeads M280 via the biotin-streptavidin interaction. After blocking the excess biotin-binding sites on the beads using unconjugated biotin, binding titration was performed by incubating the second component (i.e., Fab for immobilized Galectin-9 or vice versa), followed by quantification using a dye-labeled neutravidin (ThermoFisher) and flow cytometry analysis. In experiments where the second component is an IgG, a dye-labeled anti-human IgG or anti-mouse IgG antibody was used for detection.

[3] = biological target: T1, human Galectin-9 CRD1 (residues 1-148), …; experiment: bead-based binding assay, flow cytometry; remark: listed apart in the source
Method: as §1

T1 sequence (O00182 1-148): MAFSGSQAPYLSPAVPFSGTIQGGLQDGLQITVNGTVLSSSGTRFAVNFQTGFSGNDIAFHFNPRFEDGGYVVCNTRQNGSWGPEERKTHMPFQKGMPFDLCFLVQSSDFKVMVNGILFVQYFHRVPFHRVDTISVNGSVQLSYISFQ

B1: G9.1-2 Fab (Fab, V domains shown)
VH: EVQLVESGGGLVQPGGSLRLSCAASGFTISSSSIHWVRQAPGKGLEWVASISSYYGSTYYADSVKGRFTISADTSKNTAYLQMNSLRAEDTAVYYCARSWSSSFWYNWALDYWGQGTLVTVSS
VL: DIQMTQSPSSLSASVGDRVTITCRASQSVSSAVAWYQQKPGKAPKLLIYSASSLYSGVPSRFSGSRSGTDFTLTISSLQPEDFATYYCQQWQWGYSLVTFGQGTKVEIKR
binding result [1]: binds

B2: G9.1-8m8 mIgG2a (antibody, V domains shown)
VH: EVQLVESGGGLVQPGGSLRLSCAASGFTVSSSSIHWVRQAPGKGLEWVAYIYPYSGYTSYADSVKGRFTISADTSKNTAYLQMNSLRAEDTAVYYCARYSTYSSSKWVWGMDYWGQGTLVTVSS
VL: B1 VL with W91S, Q92Y, W93Y, G94D, Y95S, S96N, L97P, V98I
notes: also called G9.1-8mut8
Kd [2]: 0.51 nM

B4: G9.1-8m8 Fab (Fab, V domains shown)
VH: B2 VH
VL: B1 VL with W91S, Q92Y, W93Y, G94D, Y95S, S96N, L97P, V98I
notes: Purified Fab; also called G9.1-8mut8
Kd [2]: 0.56 nM

B5: G9.1-8m9 mIgG2a (antibody, V domains shown)
VH: EVQLVESGGGLVQPGGSLRLSCAASGFTVSSSSIHWVRQAPGKGLEWVAYIYPYSGYTSYADSVKGRFTISADTSKNTAYLQMNSLRAEDTAVYYCARYSTYSSKWVWGMDYWGQGTLVTVSS
VL: B1 VL with W91S, Q92Y, W93Y, G94D, Y95S, S96N, L97P, V98I
notes: also called G9.1-8mut9
Kd [2]: 0.71 nM

B6: G9.1-8m11 Fab (Fab, V domains shown)
VH: EVQLVESGGGLVQPGGSLRLSCAASGFTVSSSSIHWVRQAPGKGLEWVAYIYPYSGYTSYADSVKGRFTISADTSKNTAYLQMNSLRAEDTAVYYCARYSTYKWVWGMDYWGQGTLVTVSS
VL: B1 VL with W91S, Q92Y, W93Y, G94D, Y95S, S96N, L97P, V98I
notes: Purified Fab; also called G9.1-8mut11
Kd [2]: 52.7 nM

B7: G9.1-8m10 Fab (Fab, V domains shown)
VH: EVQLVESGGGLVQPGGSLRLSCAASGFTVSSSSIHWVRQAPGKGLEWVAYIYPYSGYTSYADSVKGRFTISADTSKNTAYLQMNSLRAEDTAVYYCARYSTYSKWVWGMDYWGQGTLVTVSS
VL: B1 VL with W91S, Q92Y, W93Y, G94D, Y95S, S96N, L97P, V98I
notes: Purified Fab; also called G9.1-8mut10
Kd [2]: 58.4 nM

B9: G9.1-8m9 Fab (Fab, V domains shown)
VH: B5 VH
VL: B1 VL with W91S, Q92Y, W93Y, G94D, Y95S, S96N, L97P, V98I
notes: Purified Fab; also called G9.1-8mut9
Kd [2]: 1.57 nM

B11: G9.1-8m6 Fab (Fab, V domains shown)
VH: EVQLVESGGGLVQPGGSLRLSCAASGFTVSSSSIHWVRQAPGKGLEWVAYIYPYSGYTSYADSVKGRFTISADTSKNTAYLQMNSLRAEDTAVYYCARYSTYSSSSSKWVWGMDYWGQGTLVTVSS
VL: B1 VL with W91S, Q92Y, W93Y, G94D, Y95S, S96N, L97P, V98I
notes: Purified Fab; also called G9.1-8mut6
Kd [2]: 0.52 nM

B13: G9.1-8m11 mIgG2a (antibody, V domains shown)
VH: B6 VH
VL: B1 VL with W91S, Q92Y, W93Y, G94D, Y95S, S96N, L97P, V98I
notes: also called G9.1-8mut11
Kd [2]: 1.46 nM

B14: G9.1-8m7 Fab (Fab, V domains shown)
VH: EVQLVESGGGLVQPGGSLRLSCAASGFTVSSSSIHWVRQAPGKGLEWVAYIYPYSGYTSYADSVKGRFTISADTSKNTAYLQMNSLRAEDTAVYYCARYSTYSSSSKWVWGMDYWGQGTLVTVSS
VL: B1 VL with W91S, Q92Y, W93Y, G94D, Y95S, S96N, L97P, V98I
notes: Purified Fab; also called G9.1-8mut7
Kd [2]: 0.93 nM

B15: G9.1-8m2 mIgG1 (antibody, V domains shown)
VH: EVQLVESGGGLVQPGGSLRLSCAASGFTVSSSSIHWVRQAPGKGLEWVAYIYPYSSSSSYADSVKGRFTISADTSKNTAYLQMNSLRAEDTAVYYCARYSTYSWGGIGKWVWGMDYWGQGTLVTVSS
VL: B1 VL with W91S, Q92Y, W93Y, G94D, Y95S, S96N, L97P, V98I
notes: Human/mouse hybrid IgG: CH1 and CL human, Fc mouse IgG1; also called G9.1-8mut2
Kd [2]: 6.51 nM

B16: G9.1-8m14 Fab (Fab, V domains shown)
VH: B6 VH with G56S, Y57S, T58S
VL: B1 VL with W91S, Q92Y, W93Y, G94D, Y95S, S96N, L97P, V98I
notes: Purified Fab; also called G9.1-8mut14
Kd [3]: 58.5 nM

B17: G9.1-8m13 Fab (Fab, V domains shown)
VH: B5 VH with G56S, Y57S, T58S
VL: B1 VL with W91S, Q92Y, W93Y, G94D, Y95S, S96N, L97P, V98I
notes: Purified Fab; also called G9.1-8mut13
Kd [3]: 20.7 nM

B20: G9.1-8m12 Fab (Fab, V domains shown)
VH: B2 VH with G56S, Y57S, T58S
VL: B1 VL with W91S, Q92Y, W93Y, G94D, Y95S, S96N, L97P, V98I
notes: Purified Fab; also called G9.1-8mut12
Kd [3]: 2.48 nM

B22: G9.1-8m4 mIgG1 (antibody, V domains shown)
VH: B15 VH with S56G, S57Y, S58T, W104S, G105S, G106S, I107S, G108S
VL: B1 VL with W91S, Q92Y, W93Y, G94D, Y95S, S96N, L97P, V98I
notes: Human/mouse hybrid IgG: CH1 and CL human, Fc mouse IgG1; also called G9.1-8mut4
Kd [2]: 12 nM

Now from value to binder:

binding result [1]: binds
B3: G9.1-3 Fab (Fab, V domains shown)
VH: EVQLVESGGGLVQPGGSLRLSCAASGFTIYSSSIHWVRQAPGKGLEWVAYIYSSSGYTSYADSVKGRFTISADTSKNTAYLQMNSLRAEDTAVYYCARYSHSSLYYSWIWALDYWGQGTLVTVSS
VL: B1 VL with W91S, Q92W, W93Y, G94S, Y95N, S96K, L97P, V98I

binding result [1]: binds
B8: G9.1-9 Fab (Fab, V domains shown)
VH: B2 VH with P53S, Y54S, T101S, S103H, S104Y, S105P, K106Y, V108L, W109F, G110A
VL: B1 VL with W91S, Q92Y, W93F, G94H, Y95K, S96I, L97P, V98I

binding result [1]: binds
B10: G9.1-7 Fab (Fab, V domains shown)
VH: EVQLVESGGGLVQPGGSLRLSCAASGFTVSSSSIHWVRQAPGKGLEWVASISSYYGYTYYADSVKGRFTISADTSKNTAYLQMNSLRAEDTAVYYCARSYSYGYDYFVKYYTMDYWGQGTLVTVSS
VL: B1 VL with W91Y, Q92P, W93G, G94Y, Y95R, S96G, V98I

binding result [1]: binds
B12: G9.1-5 Fab (Fab, V domains shown)
VH: EVQLVESGGGLVQPGGSLRLSCAASGFTIYYSSIHWVRQAPGKGLEWVASISSSYGSTYYADSVKGRFTISADTSKNTAYLQMNSLRAEDTAVYYCARSVSWYPYYYYYGYGSGLDYWGQGTLVTVSS
VL: B1 VL with W91Y, Q92Y, W93G, G94W, Y95F, S96Y, L97P
notes: Avitag at the C-terminus of the heavy chain, biotinylated when required

binding result [2]: no binding
B18: G9.1-8m1 mIgG1 (antibody, V domains shown)
VH: B15 VH with Y50S, I51S, Y52S, P53S, Y54S, S56G, S57Y, S58T
VL: B1 VL with W91S, Q92Y, W93Y, G94D, Y95S, S96N, L97P, V98I
notes: Human/mouse hybrid IgG: CH1 and CL human, Fc mouse IgG1; also called G9.1-8mut1

binding result [2]: no binding
B19: G9.1-8m5 mIgG1 (antibody, V domains shown)
VH: B15 VH with S56G, S57Y, S58T, K109S, W110S, V111S, W112S, G113S
VL: B1 VL with W91S, Q92Y, W93Y, G94D, Y95S, S96N, L97P, V98I
notes: Human/mouse hybrid IgG: CH1 and CL human, Fc mouse IgG1; also called G9.1-8mut5

binding result [2]: no binding
B21: G9.1-8m3 mIgG1 (antibody, V domains shown)
VH: B15 VH with S56G, S57Y, S58T, Y99S, T101S, Y102S
VL: B1 VL with W91S, Q92Y, W93Y, G94D, Y95S, S96N, L97P, V98I
notes: Human/mouse hybrid IgG: CH1 and CL human, Fc mouse IgG1; also called G9.1-8mut3

binding result [1]: binds
B23: G9.1-11 Fab (Fab, V domains shown)
VH: EVQLVESGGGLVQPGGSLRLSCAASGFTVYSSSIHWVRQAPGKGLEWVASIYSYYGYTSYADSVKGRFTISADTSKNTAYLQMNSLRAEDTAVYYCARSTEGYDRWGYYSSYWSSGLDYWGQGTLVTVSS
VL: DIQMTQSPSSLSASVGDRVTITCRASQSVSSAVAWYQQKPGKAPKLLIYSASSLYSGVPSRFSGSRSGTDFTLTISSLQPEDFATYYCQQTYWGLITFGQGTKVEIKR
notes: as for B12

binding result [1]: binds
B24: G9.1-4 Fab (Fab, V domains shown)
VH: EVQLVESGGGLVQPGGSLRLSCAASGFTIYYSSIHWVRQAPGKGLEWVASISSSSGSTSYADSVKGRFTISADTSKNTAYLQMNSLRAEDTAVYYCARSYRPYSSYYWGMDYWGQGTLVTVSS
VL: B23 VL with T91S, Y92S, W93S, G94S

binding result [1]: binds
B25: G9.1-1 Fab (Fab, V domains shown)
VH: EVQLVESGGGLVQPGGSLRLSCAASGFTFSSSSIHWVRQAPGKGLEWVASIYSSYGYTYYADSVKGRFTISADTSKNTAYLQMNSLRAEDTAVYYCARYYWGWSQNQGFWWYGLDYWGQGTLVTVSS
VL: DIQMTQSPSSLSASVGDRVTITCRASQSVSSAVAWYQQKPGKAPKLLIYSASSLYSGVPSRFSGSRSGTDFTLTISSLQPEDFATYYCQQSWVGSLITFGQGTKVEIKR

binding result [1]: binds
B26: G9.1-10 Fab (Fab, V domains shown)
VH: EVQLVESGGGLVQPGGSLRLSCAASGFTVSYSSIHWVRQAPGKGLEWVASIYSYYGSTYYADSVKGRFTISADTSKNTAYLQMNSLRAEDTAVYYCARGHYQEGRKSGFSYWSPALDYWGQGTLVTVSS
VL: B25 VL with S91W, W92Y, V93W, G94Y, S95Y, L96P, I97V
